Laboratory results reported in PMC4702141 (Scientific Reports, 2016).

T1: BMPRIA-Fc, P36895
T1 chain: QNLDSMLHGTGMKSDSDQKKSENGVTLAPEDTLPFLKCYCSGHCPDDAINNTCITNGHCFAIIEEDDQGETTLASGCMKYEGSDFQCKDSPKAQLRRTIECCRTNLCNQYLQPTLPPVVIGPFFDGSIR

T2: mouse GDF-7 (mouse, UniProt P43029 316-461)
T2 construct: Growth differentiation factor 7, mouse, recombinant; source: bought: R&D Systems
T2 sequence (looked up): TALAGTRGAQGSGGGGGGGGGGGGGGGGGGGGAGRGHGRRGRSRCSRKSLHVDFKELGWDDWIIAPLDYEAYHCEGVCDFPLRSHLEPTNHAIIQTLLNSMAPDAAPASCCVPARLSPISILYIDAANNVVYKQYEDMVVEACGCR

T3: human BMP4 (human, UniProt P12644 293-408)
T3 construct: Bone morphogenetic protein 4, human, recombinant; source: bought: R&D Systems
T3 sequence (looked up): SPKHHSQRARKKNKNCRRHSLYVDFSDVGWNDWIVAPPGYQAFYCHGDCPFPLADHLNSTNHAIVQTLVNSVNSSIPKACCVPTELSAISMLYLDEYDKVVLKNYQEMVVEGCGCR

T4: human BMP6 (human, UniProt P22004 375-513)
T4 construct: Bone morphogenetic protein 6, human, recombinant; source: bought: R&D Systems
T4 sequence (looked up): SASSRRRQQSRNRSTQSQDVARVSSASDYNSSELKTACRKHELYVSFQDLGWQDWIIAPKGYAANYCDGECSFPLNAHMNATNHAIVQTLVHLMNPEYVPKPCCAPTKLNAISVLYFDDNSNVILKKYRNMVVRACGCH

T5: human BMP7 (human, UniProt P18075 293-431)
T5 construct: Bone morphogenetic protein 7, human, recombinant; source: bought: R&D Systems
T5 sequence (looked up): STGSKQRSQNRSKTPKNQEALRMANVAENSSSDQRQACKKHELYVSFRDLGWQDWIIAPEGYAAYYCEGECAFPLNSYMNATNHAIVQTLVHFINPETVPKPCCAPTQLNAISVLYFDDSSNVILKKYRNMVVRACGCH

B1: human BMP7, P18075 293-431 (ligand)
chain: T5 sequence (looked up)
modifications: here or on the partner: Extracellular domain; C-terminal human IgG Fc (left out) makes a disulfide-linked dimer. The protein was bought from R&D Systems with species and limits not given; human is taken as the likeliest pr
B2: recombinant BMPRIB-Fc (Fc fusion, mouse, UniProt P36898 14-126, looked up)
chain: KKEDGESTAPTPRPKILRCKCHHHCPEDSVNNICSTDGYCFTMIEEDDSGMPVVTSGCLGLEGSDFQCRDTPIPHQRRSIECCTERNECNKDLHPTLPPLKDRDFVDGPIHHK
notes: BMPRIB (ALK6), mouse, extracellular domain; cDNA fragment NM_007560.3, 4-378 bp, from FANTOM cDNA clones (RIKEN); also called ALK6; source: 293F cells, transfected, purified from culture supernatant (Protein A columns)
B3: mouse GDF-6 (ligand, UniProt P43028 335-454, looked up)
chain: TAFASRHGKRHGKKSRLRCSRKPLHVNFKELGWDDWIIAPLEYEAYHCEGVCDFPLRSHLEPTNHAIIQTLMNSMDPGSTPPSCCVPTKLTPISILYIDAGNNVVYKQYEDMVVESCGCR
notes: Growth differentiation factor 6, mouse, recombinant; source: bought: R&D Systems
B4: BMPRIA-Fc (Fc fusion)
chain: T1 chain
modifications: Extracellular domain; C-terminal human IgG Fc (left out) makes a disulfide-linked dimer. The protein was bought from R&D Systems with species and limits not given; human is taken as the likeliest …
B5: human BMP10 (ligand, UniProt O95393 317-424, looked up)
chain: NAKGNYCKRTPLYIDFKEIGWDSWIIAPPGYEAYECRGVCNYPLAEHLTPTKHAIIQALVHLKNSQKASKACCVPTKLEPISILYLDKGVVTYKFKYEGMAVSECGCR
notes: Bone morphogenetic protein 10, human, recombinant; source: bought: R&D Systems
B6: mouse GDF-5 (ligand, UniProt P43027 376-495, looked up)
chain: APLANRQGKRPSKNLKARCSRKALHVNFKDMGWDDWIIAPLEYEAFHCEGLCEFPLRSHLEPTNHAVIQTLMNSMDPESTPPTCCVPTRLSPISILFIDSANNVVYKQYEDMVVESCGCR
notes: Growth differentiation factor 5, mouse, recombinant; source: bought: R&D Systems

How the values were obtained:
Assay in all cases: SPR; BMPRIA-Fc or BMPRIB-Fc captured with an anti-human Fc IgG capture kit; ligands injected at 25 °C, 30 μL/min; HBS-EP (+) running buffer; single-cycle kinetics, 1:1 binding model, Biacore T100; average of 2 or 3 independent analyses
BMPRIA-Fc, P36895 = biological target: T1, BMPRIA-Fc, P36895; settings: remark: other sources report otherwise
mouse GDF-5 = biological target: B6; settings: both partners purified
mouse GDF-7 = biological target: T2, mouse GDF-7; settings: both partners purified
human BMP4 = biological target: T3, human BMP4; settings: both partners purified
human BMP6 = biological target: T4, human BMP6; settings: both partners purified
human BMP2 = biological target: T6, human BMP2 (human, UniProt P12643 283-396); settings: both partners purified
T6 construct: Bone morphogenetic protein 2, human, recombinant; source: bought: R&D Systems
T6 sequence (P12643 283-396): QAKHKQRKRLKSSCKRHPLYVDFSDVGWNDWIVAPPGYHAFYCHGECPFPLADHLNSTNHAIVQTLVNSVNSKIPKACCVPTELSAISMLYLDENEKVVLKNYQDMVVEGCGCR

human BMP7 = biological target: T5, human BMP7; settings: both partners purified
mouse GDF-6 = biological target: B3; settings: both partners purified
BMPRIA-Fc = biological target: B4; settings: both partners purified
recombinant BMPRIB-Fc = biological target: B2; settings: both partners purified

## B1
BMPRIA-Fc, P36895
  Kd: 1.95 nM

## B2
Mouse GDF-5
  Kd: 0.129 nM
Mouse GDF-7
  Kd: 0.209 nM
Human BMP4
  Kd: 0.221 nM
Human BMP6
  Kd: 0.00035 nM
Human BMP2
  Kd: 0.00248 nM
Human BMP7
  Kd: 0.268 nM
Mouse GDF-6
  Kd: 0.159 nM

## B3
BMPRIA-Fc
  Kd: 0.48 nM

## B4
Mouse GDF-7
  Kd: 0.432 nM
Human BMP6
  Kd: 0.0792 nM

## B5
Recombinant BMPRIB-Fc
  Kd: 0.00945 nM

## B6
BMPRIA-Fc
  Kd: 1.63 nM
